Experimental data as given in PMC3343046, “Overexpression of the Catalytically Impaired Taspase1^T234V or Taspase1^D233A Variants Does Not Have a Dominant Negative Effect in T(4;11) Leukemia Cells” (PLoS ONE, 2012).

Biological target: T1, TaspCyt (GFP-tagged Taspase1 with a C-terminal nuclear export signal) (human, UniProt Q9H6P5 1-420)
T1 construct: Threonine Aspartase 1 (Taspase1), human, 420 aa; open reading frame cloned from MV4;11 and THP-1 cells; Still catalytically active, so probably processed in cells into α- and β-subunits; also called GFP-TaspCyt; pTaspcyt; source: HeLa, transfected, in living cells; not shown: NES (strong nuclear export signal), C-terminal, kept
T1 sequence (looked up): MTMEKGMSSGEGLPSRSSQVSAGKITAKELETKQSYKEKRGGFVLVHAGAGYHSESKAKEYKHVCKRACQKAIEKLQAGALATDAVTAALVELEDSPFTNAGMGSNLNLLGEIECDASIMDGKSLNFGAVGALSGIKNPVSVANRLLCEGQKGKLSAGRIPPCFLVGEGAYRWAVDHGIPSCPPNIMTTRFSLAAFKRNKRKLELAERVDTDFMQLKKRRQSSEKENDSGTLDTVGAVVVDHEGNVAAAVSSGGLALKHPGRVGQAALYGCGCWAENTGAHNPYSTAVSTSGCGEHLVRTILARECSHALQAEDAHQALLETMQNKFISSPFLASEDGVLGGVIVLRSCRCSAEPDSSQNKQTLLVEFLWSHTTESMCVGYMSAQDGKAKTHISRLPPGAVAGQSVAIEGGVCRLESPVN
Assay: translocation-based protein interaction assay; living HeLa transfectants, 24 h after transfection; nuclear/nucleolar recruitment of a cytoplasmic fluorescent fusion by a nuclear/nucleolar fusion; fluorescence microscopy, and confocal microscopy with the Manders overlap coefficient R
Settings: partners not purified

B1: Taspase1-mCherry (wild type) (enzyme, human, UniProt Q9H6P5 1-420, looked up)
chain: MTMEKGMSSGEGLPSRSSQVSAGKITAKELETKQSYKEKRGGFVLVHAGAGYHSESKAKEYKHVCKRACQKAIEKLQAGALATDAVTAALVELEDSPFTNAGMGSNLNLLGEIECDASIMDGKSLNFGAVGALSGIKNPVSVANRLLCEGQKGKLSAGRIPPCFLVGEGAYRWAVDHGIPSCPPNIMTTRFSLAAFKRNKRKLELAERVDTDFMQLKKRRQSSEKENDSGTLDTVGAVVVDHEGNVAAAVSSGGLALKHPGRVGQAALYGCGCWAENTGAHNPYSTAVSTSGCGEHLVRTILARECSHALQAEDAHQALLETMQNKFISSPFLASEDGVLGGVIVLRSCRCSAEPDSSQNKQTLLVEFLWSHTTESMCVGYMSAQDGKAKTHISRLPPGAVAGQSVAIEGGVCRLESPVN
notes: Threonine Aspartase 1 (Taspase1), human, 420 aa; open reading frame cloned from MV4;11 and THP-1 cells; The wild-type proenzyme is autoproteolytically processed in cells into α- and β-subunits; also called Tasp-mCherry; Tasp-mCh; source: HeLa, transfected, in living cells
  Manders overlap coefficient R: 0.387

B2: Tasp^T234V-mCherry (enzyme, human, UniProt Q9H6P5 1-420, looked up)
chain: MTMEKGMSSGEGLPSRSSQVSAGKITAKELETKQSYKEKRGGFVLVHAGAGYHSESKAKEYKHVCKRACQKAIEKLQAGALATDAVTAALVELEDSPFTNAGMGSNLNLLGEIECDASIMDGKSLNFGAVGALSGIKNPVSVANRLLCEGQKGKLSAGRIPPCFLVGEGAYRWAVDHGIPSCPPNIMTTRFSLAAFKRNKRKLELAERVDTDFMQLKKRRQSSEKENDSGTLDVVGAVVVDHEGNVAAAVSSGGLALKHPGRVGQAALYGCGCWAENTGAHNPYSTAVSTSGCGEHLVRTILARECSHALQAEDAHQALLETMQNKFISSPFLASEDGVLGGVIVLRSCRCSAEPDSSQNKQTLLVEFLWSHTTESMCVGYMSAQDGKAKTHISRLPPGAVAGQSVAIEGGVCRLESPVN
notes: Threonine Aspartase 1 (Taspase1), human, 420 aa, with Thr234 changed to Val; Not autoprocessed; stays a proenzyme; also called Taspase1^T234V-mCherry; catalytically dead Taspase1 mutant; source: HeLa, transfected, in living cells
  Manders overlap coefficient R: 0.388

B3: Tasp^D233A-mCherry (enzyme, human, UniProt Q9H6P5 1-420, looked up)
chain: MTMEKGMSSGEGLPSRSSQVSAGKITAKELETKQSYKEKRGGFVLVHAGAGYHSESKAKEYKHVCKRACQKAIEKLQAGALATDAVTAALVELEDSPFTNAGMGSNLNLLGEIECDASIMDGKSLNFGAVGALSGIKNPVSVANRLLCEGQKGKLSAGRIPPCFLVGEGAYRWAVDHGIPSCPPNIMTTRFSLAAFKRNKRKLELAERVDTDFMQLKKRRQSSEKENDSGTLATVGAVVVDHEGNVAAAVSSGGLALKHPGRVGQAALYGCGCWAENTGAHNPYSTAVSTSGCGEHLVRTILARECSHALQAEDAHQALLETMQNKFISSPFLASEDGVLGGVIVLRSCRCSAEPDSSQNKQTLLVEFLWSHTTESMCVGYMSAQDGKAKTHISRLPPGAVAGQSVAIEGGVCRLESPVN
notes: Threonine Aspartase 1 (Taspase1), human, 420 aa, with Asp233 changed to Ala; Impaired in autoproteolytic cis-cleavage; also called Taspase1^D233A-mCherry; highly attenuated Taspase1 variant; source: HeLa, transfected, in living cells
  Manders overlap coefficient R: 0.394
